The conditions of this data set: Bacillus amyloliquefaciens; pH 6.3; 25 °C; Urea; Fluorescence; MES-NaOH 50 mM; reversible: yes; whole UniProt chain shown.

B1: Ribonuclease wild type, P00648 (protein)
chain: MMKMEGIALKKRLSWISVCLLVLVSAAGMLFSTAAKTETSSHKAHTEAQVINTFDGVADYLQTYHKLPDNYITKSEAQALGWVASKGNLADVAPGKSIGGDIFSNREGKLPGKSGRTWREADINYTSGFRNSDRILYSSDWLIYKTTDHYQTFTKIR
Consider B1, for which the denaturant m value was found to be 2.21 kcal/mol/M, the “denaturant midpoint (higher = more stable)” value was found to be 4.53 M and the unfolding free energy is 10 kcal/mol.

The values are drawn from FireProtDB (doi:10.1021/bi00492a006).
